Measured values from paper PMC4350430.

Target: His6-ΔIBBMOS6 (Arabidopsis thaliana) (UniProt O04294)
Assay: ITC; MicroCal 205, 25°C, 20 mM HEPES, 150 mM NaCl, pH 7.5; His6–ΔIBB–MOS6 in the cell at 43–54 μM, titrated with His6-tagged cargo at 320–940 μM

Sequence of UniProt O04294 (O04294 whole entry, stated change not applied): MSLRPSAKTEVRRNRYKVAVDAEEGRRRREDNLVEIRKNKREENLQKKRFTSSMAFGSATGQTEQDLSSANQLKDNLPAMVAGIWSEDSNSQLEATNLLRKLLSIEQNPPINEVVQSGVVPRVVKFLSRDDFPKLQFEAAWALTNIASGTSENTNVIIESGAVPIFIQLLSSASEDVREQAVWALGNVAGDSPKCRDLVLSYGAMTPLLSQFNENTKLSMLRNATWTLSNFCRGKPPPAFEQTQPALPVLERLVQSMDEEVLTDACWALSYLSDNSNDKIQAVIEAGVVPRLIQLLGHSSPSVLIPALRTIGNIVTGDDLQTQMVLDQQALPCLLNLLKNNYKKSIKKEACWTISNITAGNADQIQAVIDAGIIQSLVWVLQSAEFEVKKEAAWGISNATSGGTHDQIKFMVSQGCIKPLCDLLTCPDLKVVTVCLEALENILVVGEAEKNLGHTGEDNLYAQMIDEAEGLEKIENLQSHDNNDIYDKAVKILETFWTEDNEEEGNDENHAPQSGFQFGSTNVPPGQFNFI

Substance	Kd	stoichiometry N
HaRxL106ΔC–SV40NLS fusion (recombinant, for ITC)	2220 to 3700 nM	–
His6-HaRxL106 (effector domain, amino acids 46–285) (domain or fragment)	540 to 850 nM	1
His6–SAP11 (natural protein)	4420 to 6800 nM	–
